Measured values from the nanobody polyreactivity screen of Harvey et al. (2022).

Assay: yeast display, Sf9 membrane polyspecificity reagent, FACS + sequencing; frameworks hold sequencing errors
How it was run: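 Galactose induction of a Saccharomyces cerevisiae BJ5465 synthetic nanobody display library ran 36–48 hours. The cells were then stained for 1 hour at 4 °C with 10% biotinylated, detergent-solubilized Sf9 membrane reagent, pulled down on streptavidin microbeads and FACS-sorted into low and high (top ~1%) gates on expression and reagent-binding fluorescence. Labels for polyreactivity follow the gate of origin.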

Sequence | polyreactivity (PSR sort gate)
QVQLVESGGGLGQAGGRLRLSCAASGRTFGYNAMGWYRQAPGKERELVAAISSGGSTNYADSVKGRFTISRDNAKNTVYLQMNSLKPEDTAVYYCAARRWRYVGTRYDYWGQGTQVTVSS | high polyreactivity
QVQLVESGGGLGQAGGSLLLSCAASGTFYTYAMGWYRQAPAKERELVAAINGGGRTYYADSVKGRITISRDNAKNSVYFQMNSLKPEDTAVYYCAAVRRISRYDYWGQGTQVTVSS | high polyreactivity
QVQLVESGGGLGQAGGSLRISCAASGRTFGIYAMGCYRQAPGKLRELVATISWRGGSTYYADSVKGRFTISRDNAKNTVYLQMNSLTPEDTAVYYCAAGPGYLILISDIYGYWGQGTQVTVSS | low polyreactivity
QVQLVESGGGLGQAGGSLRLICAASGIIFLYYAMGWYRQAPGKERELVAAITRSGGNTYYADSVKGRFTISRDNAKNTVYLQMNSLIPEDTAVYYCAARHNSVRGRGYGYDYWGQGTQVTVSS | low polyreactivity
QVQLVESGGGLGQAGGSLRLSCAASGFIFGLNAMGWYRQAPGKERELVAAISSIGGSTYYADSVKGRFTISRDNAMNTVYLQMNSLIPEDTAVYYCAKRYGGRRSWYDYWGQGSQVTVSS | high polyreactivity
QVQLVESGGGLGQAGGSLRLSCAASGFIFTPYTMGWYRQAPGKERELVAAITDGSSTYYADSVKGRFTISRDNAKNTVYLQMNSLKQEDTAVYYCNDDGKPPYISWLYDYWGLGTQVTVSS | low polyreactivity
QVQLVESGGGLGQAGGSLRLSCAASGLIFFFYAMGWYRQAPGKERELVASISGGGITYYADSVKGRFTISRDNAKNTVYLQMYSLKPEDTAVIKNDFWGQGTQVTVSS | low polyreactivity
QVQLVESGGGLGQAGGSLRLSCAASGRIFSQNAMGWYRQAPGNERELVAAITGNGGDTYYADSVKGRFTISRDNAKNTVYLQMNSLKPEDTAVYYCAARVPPVYGRVGGYHYWGPGTQVTVSS | low polyreactivity
QVQLVESGGGLGQAGGSLRLSCAASGRIFTFNAMGWYRQAPGKARELVAAISSRGDGTYYADSVKGRFTISRDNAKNTVYLQMNSLKPEDTAVYDCAADVYPYQSLSYPLQYELDYWGQGTQVTVSS | low polyreactivity
QVQLVESGGGLGQAGGSLRLSCAASGRILYIYVMGRYRQARGKERELVAALTWDDGDTYYADSVKGRFTISRDNAKITVYLQMNSLKPEDTAVYNCNAGGQGVATITGHTPEFDYWGQGTQVTVSS | low polyreactivity
QVQLVESGGGLGQAGGSLRLSCAASGRTFAAYAMGWYRQAPGKERELVAAISAGDGTNYADSVKGRFTISRVNAQNTVYLQMNSLKPEDTAVYYCAAVGPLFWPYYSYRRGYDYWGQGTQVTVSS | low polyreactivity
QVQLVESGGGLGQAGGSLRLSCAASGRTFDNYAMGWYRQAPGKERELVARITDTGGSTYYADSVKGRFTISRVNAKNTVYLQMNSLKPEDTAVYYCAAVSYPFAWYWLYYYWGQGTQVTVSS | low polyreactivity
QVQLVESGGGLGQAGGSLRLSCAASGSIFDINAMGWYRQAPGKERELVAANRENGGDTYYPDSVKGRFTISRDNAKHTVYLQMNSLKPEDTAVYYCAAYSGDQAYQGDYWGQGTQVTVSS | low polyreactivity
QVQLVESGGGLGQAGGSLRLSCAASGSIFGKNAMGWYRQAPGKETELVAAITWSGGSTYYADSVKGRFTISRDNAKNTVYLQLNSLKPEDTAVYYCNAVRVRVTSHRFRQLDYGYWGQGTQVTVSS | low polyreactivity
QVQLVESGGGLGQAGGSLRLSCAASGSIFSANAMGWYRQAPGKERELVASITGDGSTNYADSVKGRFTISRDNAKNTVYLQMNSLKPEDTAVYYCAADIGSWYDYWGQGTQVTVSS | low polyreactivity
QVQLVESGGGLGQAGGSLRLSCAASGSIFYSYAMGWYRQAPGKDRELVADISSDGSTNYADSVKGRFTISRDNAKNTVFLQMNSLKPEDTAVYYCAKKPSSARYVTIGFDYWGQGTQVTVSS | low polyreactivity
QVQLVESGGGLGQAGGSLRLSCAASGYTFAGYAMGWYRPAPGKETELVAAISQSGGRTNYADSVKGRFTISRDNSKNTVYLQMNSLKPADTAVYYCAAEETSYTSEYWGQGTQVTVSS | high polyreactivity
QVQLVESGGGLGQAGGSLRLSCSASGRIFDIYGMGWYRQAPGKERELVAAITSGGDTNYADSVKGRFTISRDNAKNTVYLQMNSLKPEDTAVYYCAARIRDQDRYDYDYWGQGTQVTVSS | low polyreactivity
QVQLVESGGGLIQAGGSLRLSCAASGSTFPYYAMGWYRQAPVKEREFVAAIRFSGSSTYDADSVKGRYTISRDYAKTTVYLQMNSLNREDTAVYYCATDYWLPSFSYDYWGQGTQVTVSS | low polyreactivity
QVQLVESGGGLLHAGGSLRLSCAASGRTFYSNAMGWYRQAPGKERELVASISSRGSTNYADSVKGRFTISRDNAKNTVYLEMNSLKPEDTAVYYCAKRTHQFGVSRSYNTYYYWGHGTQVTVSS | low polyreactivity
QVQLVESGGGLLKAGGSLRLISAASGSIFGYNTMGWYRQAPGKERELVADISVSGDDTYYADSVKGRFTISRDNAKNTVYLQMNSLKPEDTAVSYCNAVEYFGYYNTYDYWGQGTQVTVSS | low polyreactivity
QVQLVESGGGLLQAGGSISLSCAASGFTISPYAMGWYRQAPAKERELVAVISKSSTRTYYADSVKGRFTITRDNAKNTVYLQMNSLKPEDTAVYYCYAGCNFVSGYYYWGQGTQVTVSS | high polyreactivity

Sequence | polyreactivity (PSR sort gate)
QVQLVESGGGLLQAGGSLPLSCAASGRIFIKYAMGWYRPAPGKERELVAAISQSGGSTYYADSVKGRFTISRDNAKNTVYLQMNSLKPEDTAVYYCAAGNRRLGGRLYRYYYWGQGPQVTVSS | high polyreactivity
QVQLVESGGGLLQAGGSLRISCAASGSILFLYDMGWYRQAPGKERELVAAIRWSGGGTYYADSVKGRFTISRDNAKNTVYLQMNSLKPEDTAVYYCAAAARYPFDVTYYYWGQGTQVTVSS | high polyreactivity
QVQLVESGGGLLQAGGSLRLRSPASGSIFEEYAMGWYRQAPGKERELVAAITRRGGNTYYADSVKGRFTISRDNAKNTVYLQMTSLKPEDTAVYYCAAPLGNYSWQYEYWGPGTQVTVSS | low polyreactivity
QVQLVESGGGLLQAGGSLRLSCAASGFIFDGYAMGWYRQAPGKERELVAAISSVGSTYYADSVKGRFTISRDNAKKTVYLQMNSLKPEDTAVYYCAAVRFYTYNYWGQGTQVTVSS | low polyreactivity
QVQLVESGGGLLQAGGSLRLSCAASGFIFHHYGMGWYRQAPGKERELVAGDTHYADSVKGRFTISRDNAKNTVYLQMNSLKPEDTGVYYCNAYWKDDFEDGPGRRGMDYWGQGTQVTVSS | low polyreactivity
QVQLVESGGGLLQAGGSLRLSCAASGFIFRRYTLGWYRQAPGKERELVAAITSSGARTYYADSVKGRFTISRDNAKNTVYLQMTSLKPEDTAVYYCYTSYRKKKRYYYWGQGTQVTVSS | high polyreactivity
QVQLVESGGGLLQAGGSLRLSCAASGFIFVDNAMGWYRQAPGKERELVAAITSGASTYYADSVKGRFTISRDNAKNTVYLQMNSLKPEDTAVYYCAADYLYYYTWYNYWGQGTQVTVSS | low polyreactivity
QVQLVESGGGLLQAGGSLRLSCAASGFILNSYAMGWYRQAPGKERELVAAITRSGGNTFYADSVKGRFKISRDNAKNTVYLQMNSLQPEDTAVYYCYAYFTYWSQLYYWGQGTQVTVSS | high polyreactivity
QVQLVESGGGLLQAGGSLRLSCAASGFTFHKNAMGWYRQAPGKERELVAAISRSGGRTYYADSVKGRFTISRDNAKNTVYLQMNSLKPEDTAVYYCNATPLLWAGYDYWGQGTQVTVSS | high polyreactivity
QVQLVESGGGLLQAGGSLRLSCAASGFTFRNYAMGWYRQAPGKEREFVAAITGRGGSTYYADSVKGRFTISRDNAKNTVYLQMNSLKPEDTAVYYCNAYSGVSFYSSWYGYWGQGTQVTVSS | high polyreactivity
QVQLVESGGGLLQAGGSLRLSCAASGFTFRPYAMGLYRQAPGKERELVAAIDYSGGSTSYADSVKGRFTISRDNAKNTVYLQLNSLKPEDTAVFSCATDYPLSWSPLYDYDYWGQGTQVTVSS | low polyreactivity
QVQLVESGGGLLQAGGSLRLSCAASGFTFSRYAMGWYRQAPRKEMELVATISRSGGTTYYADSVKGRFTISRDNAKNTVYLLMNSLKPEDTAVYYGNTDKIWGLQYYYWGQGTQVTVSS | high polyreactivity
QVQLVESGGGLLQAGGSLRLSCAASGFTIYRYAMGWYRQATGKERELVAAITGGGGSTYYADSVKGRFTISRDNAKNTVYLQMNSLKPEDTAVYYCAVDVYHIGQYRWSYGYWGQGTQVTVSS | low polyreactivity
QVQLVESGGGLLQAGGSLRLSCAASGGIFQGNVMGWYRQAPGKERELVASIRRGGSTNYADSVKGRFTISRDNAKNTVYLQMNSLKPEDTAVYYCAARKWVGYHVWPLREYNYWGQGTQVTVSS | low polyreactivity
QVQLVESGGGLLQAGGSLRLSCAASGINFSKYAMGWYRQAPGTERELVAVISASGGGTYYADSVKGRFTISRDNAKNTVYLQMNSLKPEDTAVYFCAADSSDVYDYWGQGTQVTVSS | high polyreactivity
QVQLVESGGGLLQAGGSLRLSCAASGRIFDRNAMGWYRQAPGKERELVATISSGDTTDYADSVKGRFTISRDNAKNTVYLQMNSLKPEDTAVYYITIYNYWGQGTQVTVSS | low polyreactivity
QVQLVESGGGLLQAGGSLRLSCAASGRIFSTNAMGWYRQAPGKERELVAAITNGGNTNYADSVKGRFTISRDNAKITVYLQMNSLKQEDTAVYYCAKAVAYSWVDGYGYEYWGQGTQVTVSS | low polyreactivity
QVQLVESGGGLLQAGGSLRLSCAASGRIFVVYAMGWYRQAPGKERELVASITWRGGSTYYADSVKGRFTISRDNAKNTVYLQMNSLKPEDTAVYYCAAELDVYVSIGSRFHFDYWGQGTQVTVSS | low polyreactivity
QVQLVESGGGLLQAGGSLRLSCAASGRTFAYNAMAWYRQAPGKERELVAAITDSDGNTYYADSVKGRFTISRDNAKNTVYLLMNSLKPEDTAVYYCAADYIILDHVTRGFVYEYWGQGTQVTVSS | low polyreactivity
QVQLVESGGGLLQAGGSLRLSCAASGRTFHLYAMGWYRQAPGKERELVAAIRGRSGSTYYADSVKGRFTISRDNAKNTVYLQMNSLKPEDTAVYYCAVGRYPYGSARYRFDYWGQGTQVTVSS | high polyreactivity
QVQLVESGGGLLQAGGSLRLSCAASGRTSVRYAMGWYRQAPGKERELVAAISWSGGSTYYADSVKGRFTISRDHAKNTVYLQMNCLKPEDTAVYYCNAQHARGYYYWGQGTQVTVSS | low polyreactivity
